Experimental data as given in patent publication US20230399403A1 (BIONTECH, published 2023).
Read-outs that look alike come from different tables or passages of the source.

How the values were obtained:
[1] = biological target: T1, full-length human PD-1 expressed on cells (human, UniProt Q15116 25-288); experiment: cell-based or functional assay
[2] = biological target: T1, full-length human PD-1 expressed on …; experiment: cell binding, HEK-293 cells expressing full-length human PD-1, CellInsight CX5 imaging
Method: (§1) Binding of chimeric and humanized anti-PD-1 antibodies to cell surface expressed hPD-1 was analyzed using HEK-293 cells ectopically expressing full-length human-PD1 (BPS Biosciences; Cat. No. 60680). Cell cultures were grown in MEM containing 10% FCS, ix MEM NEAA, 1 mM Na pyruvate and 100 μg/mL Hygromycin B. Hygromycin B was omitted when cells were plated for testing antibody binding. 1,000 cells in 20 μL medium were seeded per well in black 384-well cell-culture treated plates with clear bottom and were incubated for 2 hours at 37° C. and 5% CO₂. Anti-PD-1 antibodies were added in 5 μL medium to final concentrations ranging from 1,000 to 0.06 ng/mL or 620 to 0.45 ng/mL. […] After an 18 hours incubation at 37° C. and 5% CO₂, plates were washed once with 25 μL PBS, 0.05% Tween 20 (cell wash buffer) and Alexa-Fluor-488-conjugated AffiniPure goat-anti-human-IgG F(ab′)₂ fragment (Vendor) was added at a concentration of 0.8 μg/mL in 20 μL medium. Plates were incubated for 4 hours at 37° C. and 5% CO₂ in the dark, washed once with 25 μL cell wash buffer and incubated for 10 minutes with 20 μL medium containing 5 μg/ml Hoechst (Invitrogen). Cell-associated immunofluorescent signals were recorded using a CellInsight CX5 high content imager device (Thermo Fisher). Data was fitted with a 4-parameter logistic model and EC50 values calculated using GraphPad Prism 8.4.3.

[3] = biological target: T2, Recombinant human PD-1 human-FC Chimera (R&D Systems) (human, UniProt Q15116 25-170); experiment: ELISA, coated recombinant human PD-1 human-Fc chimera
T2 construct: Bought construct; also called recombinant human-PD-1 extracellular domain; hPD-1 (ELISA); not shown: human Fc part of the bought chimera
Method: (§2) The binding potency of chimeric and humanized anti-PD-1 antibodies to recombinant human-PD-1 extracellular domain was determined by ELISA. Recombinant human PD-1 human-FC Chimera (R&D Systems) was coated on 384-well MaxiSorp™ flat bottom plates (Nunc) at a concentration of 0.625 μg/mL in PBS (Vendor) for 60 minutes at room temperature. Coated plates were washed three times with PBS, 0.1% Tween (PBS-T), blocked by incubation with PBS, 2% BSA, 0.05% Tween for 60 minutes at room temperature, and washed for an additional three times with PBS-T. Anti-PD-1-antibodies were added in PBS, 0.5% BSA, 0.05% Tween (ELISA buffer) in concentrations ranging from 1,000 to 0.06 ng/mL or 2,500 to 0.15 ng/mL and the plate was incubated for 60 minutes at room temperature. […] After 3 washes with PBS-T, horseradish peroxidase coupled goat-anti-human-IgG (Fab′)₂ fragment (AbD Serotec; Cat. No. STAR126P) was added in ELISA buffer at a dilution of 1:5,000. The plate was incubated for 60 minutes at room temperature, and washed 6 times with PBS-T before TMB solution (Thermo Fisher Scientific) was added. After 10 minutes HCl was added and the absorbance at wavelengths of 450 and 620 nm recorded using a Tecan Infinite M1000 reader. Data was fitted with a 4-parameter logistic model and EC50 values calculated using GraphPad Prism 8.4.3 (GraphPad Software, San Diego, CA, USA).

[4] = biological target: T2, Recombinant human PD-1 human-FC Chimera …; experiment: as above; remark: listed apart in the source
Method: as §2

[5] = biological target: T1, full-length human PD-1 expressed on …; experiment: cell binding, HEK-293 cells expressing full-length human PD-1, CellInsight CX5 imaging; remark: listed apart in the source
Method: as §1

[6] = biological target: T1, full-length human PD-1 expressed on …; experiment: flow cytometry, K562 cells electroporated with full-length human PD-1 mRNA, dilutions of RiboMab-containing supernatant
Method: 20×10⁶ cells K562 cells growing in log-phase were used for electroporation of full-length human PD-1. Cells in 250 μL X-Vivo 15 medium (LONZA Technologies, cat. no. BE02-060F) were combined in 4 mm gap cuvettes with 10 μg human PD-1-encoding IVT-mRNA. Cells were immediately electroporated with a BTX ECM830 (BTX Harvard Apparatus) with the following setting: 200 V, 3 pulses, 8 ms.
Binding of RiboMabs to K562 cells expressing PD-1 was analyzed by flow cytometry. […] Cells were washed twice with FACS buffer, re-suspended in 60 μL FACS buffer and analyzed on a BD FACSCanto™ II flow cytometer (BD Biosciences). Binding curves were analyzed by non-linear regression (log(agonist) vs. response—variable slope (four parameters)) using GraphPad Prism V9.1.0 software.

[7] = biological target: T1, full-length human PD-1 expressed on …; experiment: cell-based or functional assay; remark: listed apart in the source

T2 sequence (Q15116 25-170, change not shown): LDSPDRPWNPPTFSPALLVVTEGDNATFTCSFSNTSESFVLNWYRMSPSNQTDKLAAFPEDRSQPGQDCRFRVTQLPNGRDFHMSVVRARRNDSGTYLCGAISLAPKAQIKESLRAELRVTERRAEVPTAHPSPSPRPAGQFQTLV
T1 sequence (Q15116 25-288 limits assumed): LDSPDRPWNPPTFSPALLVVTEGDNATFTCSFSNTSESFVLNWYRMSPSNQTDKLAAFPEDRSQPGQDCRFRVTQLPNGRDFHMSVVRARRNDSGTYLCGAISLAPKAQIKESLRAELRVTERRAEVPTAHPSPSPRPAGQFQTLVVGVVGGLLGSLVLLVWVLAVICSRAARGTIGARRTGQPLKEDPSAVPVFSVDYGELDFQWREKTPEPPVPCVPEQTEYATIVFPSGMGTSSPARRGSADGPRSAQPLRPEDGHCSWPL

hPD-1 blockade assay IC50 [1] [ng/mL] | EC50 [2] [ng/mL] | EC50 [3] [ng/mL] | EC50 [4] [ng/mL] | EC50 [5] [ng/mL] | fold difference in EC50 values (RiboMab-19-0233 against RiboMab-19-0202) [6] [fold] | hPD-1 blockade assay IC50 [7] [ng/mL] | Binder
913 | 7 | 6.6 |  |  |  |  | MAB-19-0223 (antibody, human IgG1, V domains shown, Chimeric rabbit/human antibody, human IgG1 constant parts with L234A and L235A (LALA); also called chimeric anti-PD-1 MAB-19-0223) VH: QEHLVESGGGLVQPEGSLTLTCKASGIDFSDTYWICWVRQPPGKGLEWIGCIGIGGSGSTYYAGWAKGRFTISKTSSTTVTLQMTTLTDADTATYFCATEIPYFNVWGPGTLVTVSS VL: AQVLTQTPSSVSAAVGGTVTINCQSSQSVYNKNWLAWYQQKPGQPPKLLIYDASKLTSGVPSRFKGSGSGTQFTLTISGVQSDDAATYYCQGTYDVNGWLVAFGGGAEVVVK
870 | 13.9 | 4 |  |  |  |  | MAB-19-0208 (antibody, human IgG1, V domains shown, Chimeric rabbit/human antibody, human IgG1 constant parts with L234A and L235A (LALA); also called chimeric anti-PD-1 MAB-19-0208) VH: QSVEESGGRLVTPGTPLTLTCTVSGFSLSRYYISWVRQAPGKGLEWIGSFYADSGTTWYATWVKGRFTFSTASSTTVDLKMTSPTTEDTATYFCARNSGDAQFNIWGPGTLVTVSS VL: AAVLTQTPSPVSAAVGGTVSISCQSSESVYNKNQLCWYQQKPGQRPKLLIYDASTLASGVPSRFSGSGSGTQFTLTISDVQSDAAATYYCAGGYSVTSDTTFGGGTEVVVR
720 | 6.3 | 9.2 |  |  |  |  | MAB-19-0217 (antibody, human IgG1, V domains shown, Chimeric rabbit/human antibody, human IgG1 constant parts with L234A and L235A (LALA); also called chimeric anti-PD-1 MAB-19-0217) VH: QSVEESGGRLVTPGTPLTLTCTVSGFSLSRYYMTWVRQAPGKGLEWIGIIYPDTGTTWYASWVKGRFTFSKTSSTTVDLKMTSPTTEDTATYFCARSTTDAQFNIWGPGTLVTVSS VL: AAVLTQTPSPVSAAVGGTVSISCQSSENVYTDNQLCWYQQKPGQRPKLLIYDASTLASGVPSRFSGSGSGTQFTLTISGVQSDDAATYYCAGGYSTTSDTTFGGGTEVVVK
657 | 16.8 | 6.3 | 7.2 | 2.4 |  |  | MAB-19-0233 (antibody, human IgG1, V domains shown, Chimeric rabbit/human antibody, human IgG1 constant parts with L234A and L235A (LALA)) VH: QSLEESGGDLVKPGASLTLTCKASGIDFSSVYYMCWVRQAPGKGLEWIACIYVGSSGVSYYATWAKGRFTISKTSSTTVTLQMTSLTAADTATYFCARAGYVGAVYVTLTRLDLWGQGTLVTVSS VL: AAVLTQTPSPVSAAVGGTVTISCQSSQSIYTNNDLAWYQQKPGQPPKLLIYDASKLASGVPSRFSGSGSGTQFTLTISGVQSDDAATYYCLGGYDDDADNAFGGGTEVVVK
 |  |  |  |  | ~2.5 |  | RiboMab-19-0233 (antibody, V domains shown, Tested as HEK293T/17 supernatant, concentration not determined) VH: QSLEESGGDLVKPGASLTLTCKASGIDFSSVYYMCWVRQAPGKGLEWIACIYVGSSGVSYYATWAKGRFTISKTSSTTVTLQMTSLTAADTATYFCARAGYVGAVYVTLTRLDLWGQGTLVTVSS VL: AAVLTQTPSPVSAAVGGTVTISCQSSQSIYTNNDLAWYQQKPGQPPKLLIYDASKLASGVPSRFSGSGSGTQFTLTISGVQSDDAATYYCLGGYDDDADNAFGGGTEVVVK
 |  |  | 8.8 | 5.7 |  | 368 | MAB-19-0598 (antibody, IgG1, V domains shown, Recombinant humanized hIgG1-LALA antibody) VH: QVQLVESGGDVVKPGRSLRLSCKASGIDFSSVYYMCWVRQAPGKGLEWIACIYVGSSGVSYYATWAKGRFTISRDTSTSTLFLQMNSLRAGDTATYYCARAGYVGAVYVTLTRLDLWGQGTLVTVSS VL: DIQMTQSPSSLSASVGGTVTITCQSSQSIYTNNDLAWYQQKPGQPPKLLIYDASKLASGVPSRFSGSGSGTQFTLTISSLQSEDAATYYCLGGYDDDADNAFGGGTEVVVK
 |  |  | 7.5 | 3.6 |  | 188 | MAB-19-0583 (antibody, IgG1, V domains shown, Recombinant humanized hIgG1-LALA antibody) VH: QVQLVESGGDVVKPGRSLRLSCKASGIDFSSVYYMCWVRQAPGKGLEWIACIYVGSSGVSYYATWAKGRFTISRDTSTSTLFLQMNSLRAGDTATYYCARAGYVGAVYVTLTRLDLWGQGTLVTVSS VL: DVVMTQSPSTVSASVGDRVTLTCQSSQSIYTNNDLAWYQQKPGQPPKLLIYDASKLASGVPDRFSGSGSGTDFTLTISSLQADDFATYYCLGGYDDDADNAFGQGTKVEIK
 |  |  | 14.6 | 9.5 |  | 311 | MAB-19-0594 (antibody, IgG1, V domains shown, Recombinant humanized hIgG1-LALA antibody) VH: EVQLEESGGGLVKPGGSLRLSCAASGIDFSSVYYMCWVRQAPGKGLEWVSCIYVGSSGVSYYATWAKGRFTISRDNSKNTLYLQMNSLRAEDTAVYYCARAGYVGAVYVTLTRLDLWGRGTLVTVSS VL: DIQMTQSPSSLSASVGGTVTITCQSSQSIYTNNDLAWYQQKPGQPPKLLIYDASKLASGVPSRFSGSGSGTQFTLTISSLQSEDAATYYCLGGYDDDADNAFGGGTEVVVK
 |  |  | 3.3 | 2.8 |  | 85 | MAB-19-0603 (antibody, IgG1, V domains shown, Recombinant humanized hIgG1-LALA antibody) VH: QVQLVESGGGLVQPGTSLRLSCSVSGFSLYSYNMGWVRQAPGKGLEYIGIISGGTIGHYASWAKGRFTISRDTSKTTLYLQMNSLTTEDTATYFCARAFYDDYDYNVWGPGTLVTVSS VL: DIVMTQSPSSLSASVGDRVTITCQSSQSVYGNNQLSWYQQKPGKAPKLLIYQASKLETGVPSRFSGSGSGTDFTLTISSLQPEDFATYYCAGGYSSSSDTTFGGGTKVVIK
 |  |  | 8 | 1.7 |  | 57 | MAB-19-0618 (antibody, IgG1, V domains shown, Recombinant humanized hIgG1-LALA antibody) VH: QVQLVESGGGLVQPGTSLRLSCSVSGFSLYSYNMGWVRQAPGKGLEYIGIISGGTIGHYASWAKGRFTISRDTSKTTLYLQMNSLTTEDTATYFCARAFYDDYDYNVWGPGTLVTVSS VL: AIQLTQSPSSLSASVGGTVTITCQSSQSVYGNNQLSWYQQKPGQPPKLLIYQASKLETGVPSRFRGSGSGTQFTLTISSLQSEDFATYYCAGGYSSSSDTTFGGGTEVVVK
 |  |  | 4.4 | 1.2 |  | 93 | MAB-19-0613 (antibody, IgG1, V domains shown, Recombinant humanized hIgG1-LALA antibody) VH: QVQLVESGGGLVQPGTSLRLSCSVSGFSLYSYNMGWVRQAPGKGLEYIGIISGGTIGHYASWAKGRFTISRDTSKTTLYLQMNSLTTEDTATYFCARAFYDDYDYNVWGPGTLVTVSS VL: DIQMTQSPSSLSASVGDRVTITCQSSQSVYGNNQLSWYQKKPGQAPKLLIYQASKLETGVPSRFSGSGSGTDFTLTISSLQPEDFATYYCAGGYSSSSDTTFGPGTKVDIK
 |  |  | 7.7 | 2.8 |  | 63 | MAB-19-0608 (antibody, IgG1, V domains shown, Recombinant humanized hIgG1-LALA antibody) VH: QVQLVESGGGLVQPGTSLRLSCSVSGFSLYSYNMGWVRQAPGKGLEYIGIISGGTIGHYASWAKGRFTISRDTSKTTLYLQMNSLTTEDTATYFCARAFYDDYDYNVWGPGTLVTVSS VL: DIQMTQSPSTLSASVGDRVTITCQSSQSVYGNNQLSWYQQKPGKAPKLLIYQASKLETGVPSRFSGSGSGTQFTLTISSLQPDDFASYYCAGGYSSSSDTTFGQGTKVEIK
324 |  | 3.5 | 4 | 0.5 |  | 56 | MAB-19-0202 (antibody, V domains shown, Chimeric rabbit/human antibody: rabbit variable regions cloned N-terminal of human IgG1 / kappa constant parts with L234A and L235A (LALA)) VH: QSVEESGGRLVTPGTPLTLTCTVSGFSLYSYNMGWVRQAPGKGLEYIGIISGGTIGHYASWAKGRFTISKTSSTTVDLKMTSLTTEDTATYFCARAFYDDYDYNVWGPGTLVTVSS VL: AAVLTQTPSPVSAAVGGTVTISCQSSQSVYGNNQLSWYQQKPGQPPKLLIYQASKLETGVPSRFKGSGSGTQFTLTISDLESDDAATYYCAGGYSSSSDTTFGGGTEVVVK
